Data as given in patent publication US20120115870A1, “CONTROL OF INTRAOCULAR PRESSURE USING ALK5 MODULATION AGENTS” (ALCON RESEARCH, LTD., priority 2005, published 2012).

Legend:
[1] = tested on: GTM-3 transformed human TM cells; assay: TGF-β2-mediated fibronectin and PAI-1 in human TM cell culture supernatants, ELISA (FIG. 3); assay type: cell-based; settings: human TM cell cultures, 24 h
Description: (§1) Generation and characterization of the GTM-3 transformed cell line has been previously described (Pang et al., Curr Eye Res., 1994; Vol. 13:51-63). Briefly, maintenance growth medium consisted of Dulbecco's modified Eagle's medium with Glutamax I (Gibco/BRL, Grand Island, N.Y.) supplemented with 10% fetal bovine serum (Hyclone, Logan, Utah) and 50 μg/mL gentamicin (Gibco/BRL). For assay, cultures were trypsinized and seeded into 24-well plates (Corning Costar, Acton, Mass.) and allowed to grow until monolayers reached approximately 90% confluence. Culture medium was then replaced with 0.25 mL serum- and antibiotic-free medium containing the appropriate test compound(s). Cells were incubated 24 h, at 5% CO2 and 37° C. Aliquots of culture supernatants were then assayed for fibronectin and/or PAI-1 content by ELISA.

ALK5 = target: T1, ALK5 (Homo sapiens, UniProt P36897); settings: Brit J Pharmacol. 2005; 145:166-177; read-out: IC50, inhibition of phosphorylation of ALK5; cited from earlier work
T1 sequence (P36897 34-503): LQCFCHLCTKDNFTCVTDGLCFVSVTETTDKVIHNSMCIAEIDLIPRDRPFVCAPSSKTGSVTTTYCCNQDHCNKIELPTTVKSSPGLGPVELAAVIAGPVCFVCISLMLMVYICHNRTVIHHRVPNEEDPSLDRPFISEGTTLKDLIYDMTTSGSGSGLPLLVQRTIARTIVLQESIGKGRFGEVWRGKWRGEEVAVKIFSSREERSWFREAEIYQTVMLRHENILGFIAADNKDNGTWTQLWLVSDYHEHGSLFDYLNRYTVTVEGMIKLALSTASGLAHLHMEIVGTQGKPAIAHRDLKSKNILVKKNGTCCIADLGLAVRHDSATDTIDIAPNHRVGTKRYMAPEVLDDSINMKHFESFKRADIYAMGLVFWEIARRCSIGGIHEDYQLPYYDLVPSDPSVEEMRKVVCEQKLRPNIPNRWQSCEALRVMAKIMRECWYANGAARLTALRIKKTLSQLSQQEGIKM

TGF-β Type II receptors = TGF-β Type II receptors (Homo sapiens, UniProt P37173); settings: Brit J Pharmacol. 2005; 145:166-177; read-out: IC50, phosphorylation of TGF-β Type II receptors; cited from earlier work
p38 MAPK = p38 MAPK (Homo sapiens, UniProt Q16539); settings: Brit J Pharmacol. 2005; 145:166-177; read-out: IC50, phosphorylation of p38 MAPK; cited from earlier work
[2] = tested on: TGF-β2-treated perfused human anterior segment model; assay: Perfusate fibronectin in TGF-β2-treated perfused human anterior segment model (FIG. 2); settings: human anterior segments treated with TGF-β2 and compound vs TGF-β2 only
Description: Human ocular perfusion organ culture was performed as described in available literature. [Tschumper et al., Curr Eye Res., 1990; Vol. 9:363-369; Clark et al., Invest Ophthalmol Vis Sci., 1995; Vol. 36:478-489; Pang et al., J Glaucoma, 2000; Vol. 9:468-479; Pang et al., Invest Ophthalmol Vis Sci., 2003; Vol. 44:3502-3510]. Briefly, anterior segments were dissected and mounted into custom Plexiglas culture chambers, then perfused with serum-free Dulbecco's modified Eagle's medium. IOP was monitored every 5 seconds and averaged each hour. Perfused tissue was allowed to equilibrate at 37° C. and 5% CO2 until a stable baseline IOP was achieved, typically 2-4 days; tissues with unstable IOP were discarded. Stable tissues were then further perfused with media containing the test compound(s) as indicated and changes in IOP were recorded. Eluate samples were collected daily for ELISA analysis of fibronectin and PAI-1 content. Tissues were fixed and evaluated for viability/morphology by light and electron microscopy at termination of each study. Data from unacceptable tissues were excluded from results. Criteria for “unacceptable” tissues included findings such as excess debris in the TM region, denudation of TM beams, loss of TM and/or Schlemm's canal cells, and breaks or collapse of Schlemm's canal. […]

[3] = tested on: GTM-3 transformed human TM cells; assay: Pro-collagen type I C-peptide (PIP) in human TM cell cultures, ELISA (FIG. 4); assay type: cell-based; settings: 24 h
Description: For this experiment, cultured transformed GTM-3 cells (Pang et al., Curr Eye Res., 1994; Vol. 13:51-63) were grown in a growth medium consisting of Dulbecco's modified Eagle's medium with Glutamax I (Gibco/Invitrogen, Grand Island, N.Y.) supplemented with 10% fetal bovine serum (Hyclone, Logan, Utah) and 50 μg/mL gentamicin (Gibco/Invitrogen). For assay, cultures were enzymatically-dissociated (TrypLE Express; Gibco/Invitrogen) then seeded into 24-well plates (Corning Costar, Acton, Mass.) and allowed to grow until monolayers reached approximately 90-95% confluence. Culture medium was then replaced with 0.25 mL serum- and antibiotic-free medium containing the appropriate test compound(s). Cells were incubated 24 h, at 5% CO2 and 37° C. Aliquots of culture supernatants were then assayed using an ELISA kit for procollagen Type I C-peptide (TaKaRa Bio, Shiga, Japan).
Collagens are synthesized as pro-collagens, most of which contain additional peptide sequences called “propeptides”. Propeptides are located at both the N- and C-terminal ends of the molecules. These propeptides serve to facilitate formation of the mature collagen's triple helical structure from pro-collagens within the endoplasmic reticulum. […]

[4] = tested on: perfused human anterior segment model; assay: Perfused human anterior segment model, IOP (FIG. 1); settings: TGF-β2 infused at 5 ng/mL
Description: FIG. 1 is a graph showing the effect of infused TGF-β2 on a perfused human anterior segment model. All donor eyes used in this model were used according to the provisions of the Declaration of Helsinki for research involving human tissue, and were used within 24 hours post-mortem. No donors were known to have a history of glaucoma or other ocular disorder.
Human ocular perfusion organ culture was performed as described in available literature. [Tschumper et al., Curr Eye Res., 1990; Vol. 9:363-369; Clark et al., Invest Ophthalmol Vis Sci., 1995; Vol. 36:478-489; Pang et al., J Glaucoma, 2000; Vol. 9:468-479; Pang et al., Invest Ophthalmol Vis Sci., 2003; Vol. 44:3502-3510]. Briefly, anterior segments were dissected and mounted into custom Plexiglas culture chambers, then perfused with serum-free Dulbecco's modified Eagle's medium. IOP was monitored every 5 seconds and averaged each hour. Perfused tissue was allowed to equilibrate at 37° C. and 5% CO2 until a stable baseline IOP was achieved, typically 2-4 days; tissues with unstable IOP were discarded. Stable tissues were then further perfused with media containing the test compound(s) as indicated and changes in IOP were recorded. Eluate samples were collected daily for ELISA analysis of fibronectin and PAI-1 content. Tissues were fixed and evaluated for viability/morphology by light and electron microscopy at termination of each study. […]

GTM-3 = assay: Effect of TGF-β2 on HTM cell secretion of fibronectin and PAI-1; assay type: cell-based, human; settings: 24 hours
Description: as §1
(§2) TABLE 1, shown below, summarizes the results of a study measuring the effect of TGF-β2 on ECM-related protein levels (fibronectin, PAI-1) in cultured TM cells of various strains. TGF-β2 was present in the cultures at a concentration of 5 ng/mL, and protein levels (mean±s.e.m.) were measured after 24 hours.

GTM29-01 = assay: as above; assay type: cell-based, human; settings: 24 hours
Description: as §1, §2

GTM686-03 = assay: as above; assay type: cell-based, human; settings: 24 hours
Description: as §1, §2

GTM730-03 = assay: as above; assay type: cell-based, human; settings: 24 hours
Description: as §1, §2

NTM25-91 = assay: as above; assay type: cell-based, human; settings: 24 hours
Description: as §1, §2

NTM35 = assay: as above; assay type: cell-based, human; settings: 24 hours
Description: as §1, §2

NTM553-02 = assay: as above; assay type: cell-based, human; settings: 24 hours
Description: as §1, §2

NTM875-03 = assay: as above; assay type: cell-based, human; settings: 24 hours
Description: as §1, §2

NTM974-03 = assay: as above; assay type: cell-based, human; settings: 24 hours
Description: as §1, §2

SGTM1233-99 = assay: as above; assay type: cell-based, human; settings: 24 hours
Description: as §1, §2

SGTM2697 = assay: as above; assay type: cell-based, human; settings: 24 hours
Description: as §1, §2

Sequence of p38 MAPK (Q16539 whole entry, the tested form may be a part): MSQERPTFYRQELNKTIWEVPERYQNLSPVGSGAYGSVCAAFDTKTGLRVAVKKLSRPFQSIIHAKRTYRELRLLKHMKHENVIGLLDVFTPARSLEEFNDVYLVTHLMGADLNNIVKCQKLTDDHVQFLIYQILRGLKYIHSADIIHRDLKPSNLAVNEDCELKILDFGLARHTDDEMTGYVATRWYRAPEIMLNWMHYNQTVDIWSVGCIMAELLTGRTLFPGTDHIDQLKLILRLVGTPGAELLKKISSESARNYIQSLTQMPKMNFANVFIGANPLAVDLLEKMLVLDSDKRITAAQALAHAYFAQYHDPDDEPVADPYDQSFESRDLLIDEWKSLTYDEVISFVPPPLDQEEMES
Sequence of TGF-β Type II receptors (P37173 23-567): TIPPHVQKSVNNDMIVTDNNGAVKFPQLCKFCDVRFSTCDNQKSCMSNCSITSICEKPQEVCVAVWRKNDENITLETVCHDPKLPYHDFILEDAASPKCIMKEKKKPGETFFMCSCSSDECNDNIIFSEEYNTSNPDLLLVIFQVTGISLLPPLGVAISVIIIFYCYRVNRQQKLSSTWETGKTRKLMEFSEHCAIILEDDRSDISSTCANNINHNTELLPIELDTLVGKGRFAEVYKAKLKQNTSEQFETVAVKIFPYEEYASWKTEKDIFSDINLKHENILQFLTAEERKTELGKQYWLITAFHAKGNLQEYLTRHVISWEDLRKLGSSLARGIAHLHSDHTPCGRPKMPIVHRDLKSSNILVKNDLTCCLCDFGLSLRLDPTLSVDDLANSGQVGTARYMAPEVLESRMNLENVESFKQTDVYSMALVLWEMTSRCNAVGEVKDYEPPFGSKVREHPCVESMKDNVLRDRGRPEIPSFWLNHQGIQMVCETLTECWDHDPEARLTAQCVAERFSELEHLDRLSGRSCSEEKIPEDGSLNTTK

## c1ccc(-c2n[nH]cc2-c2ccnc3ccccc23)nc1 [Compound 2]
[1]
  Inhibition of TGF-β2-mediated increase in PAI-1 content in supernatants: dose-dependent inhibition
  Inhibition of TGF-β2-mediated increase in fibronectin content in supernatants: dose-dependent inhibition

## c1ccc(-c2cc(-c3cn[nH]c3-c3ccccn3)ccn2)cc1 [GW-6604]
ALK5
  IC50: ~0.14 µM
TGF-β Type II receptors
  IC50: 10 µM
p38 MAPK
  IC50: 9.5 µM

## NC(=O)c1ccc(-c2nc(-c3ccc4c(c3)OCO4)c(-c3ccccn3)[nH]2)cc1 [Compound 1]
[2]
  TGF-β2-mediated increase in perfusate fibronectin content: completely antagonized
[1]
  Inhibition of TGF-β2-mediated increase in PAI-1 content in supernatants: dose-dependent inhibition
  Inhibition of TGF-β2-mediated increase in fibronectin content in supernatants: dose-dependent inhibition
[3]; cultures treated with both TGF-β2 and compound
  TGF-β2-dependent PIP elevation: eliminated

B1: TGF-β2: transforming growth factor-beta isoform 2, a cytokine acting on ALK5 (Type 1 TGF-β receptor) (protein, UniProt P61812 303-414, looked up)
Transforming growth factor …: ALDAAYCFRNVQDNCCLRPLYIDFKRDLGWKWIHEPKGYNANFCAGACPYLWSSDTQHSRVLSLYNTINPEASASPCCVSQDLEPLTILYYIGKTPKIEQLSNMIVKSCKCS
[4]; after 72 hours
  IOP relative to control: almost double
[4]; within 24 hours
  IOP compared to control: elevated IOP
[3]; TGF-β2-treated cultures, both study replicates
  PIP levels compared to vehicle: greatly elevated
GTM-3; TGF-β2 5 ng/mL vs control
  Fibronectin Fold Increase: 5.4
  PAI-1 Fold Increase: 19.4
GTM-3; TGF-β2 5 ng/mL, mean±s.e.m.
  Fibronectin: 16.7 ± 1^ μg/well
  PAI-1: 266 ± 8 ng/well
GTM29-01; TGF-β2 5 ng/mL vs control
  Fibronectin Fold Increase: 9.4
  PAI-1 Fold Increase: 3.9
GTM29-01; TGF-β2 5 ng/mL, mean±s.e.m.
  Fibronectin: 9.4 ± 2.6 μg/well
  PAI-1: 260.5 ± 13.6 ng/well
GTM686-03; TGF-β2 5 ng/mL vs control
  Fibronectin Fold Increase: 126
  PAI-1 Fold Increase: 2.5
GTM686-03; TGF-β2 5 ng/mL, mean±s.e.m.
  Fibronectin: 25.2 ± 9.6 μg/well
  PAI-1: 258.3 ± 28.1 ng/well
GTM730-03; TGF-β2 5 ng/mL vs control
  Fibronectin Fold Increase: 32.8
  PAI-1 Fold Increase: 2.2
GTM730-03; TGF-β2 5 ng/mL, mean±s.e.m.
  Fibronectin: 26.2 ± 1.6 μg/well
  PAI-1: 268.8 ± 3.9 ng/well
NTM25-91; TGF-β2 5 ng/mL vs control
  Fibronectin Fold Increase: 6.2
NTM25-91; TGF-β2 5 ng/mL, mean±s.e.m.
  Fibronectin: 19.3 ± 1.5 μg/well
NTM35; TGF-β2 5 ng/mL vs control
  Fibronectin Fold Increase: 4.1
NTM35; TGF-β2 5 ng/mL, mean±s.e.m.
  Fibronectin: 13 ± 2.7 μg/well
NTM553-02; TGF-β2 5 ng/mL vs control
  Fibronectin Fold Increase: 6.7
  PAI-1 Fold Increase: 2.5
NTM553-02; TGF-β2 5 ng/mL, mean±s.e.m.
  Fibronectin: 10.1 ± 1.1 μg/well
  PAI-1: 315.9 ± 9.5 ng/well
NTM875-03; TGF-β2 5 ng/mL vs control
  Fibronectin Fold Increase: 19.2
  PAI-1 Fold Increase: 2.6
NTM875-03; TGF-β2 5 ng/mL, mean±s.e.m.
  Fibronectin: 9.6 ± 3.8 μg/well
  PAI-1: 282.6 ± 11.6 ng/well
NTM974-03; TGF-β2 5 ng/mL vs control
  Fibronectin Fold Increase: 2.3
  PAI-1 Fold Increase: 2.8
NTM974-03; TGF-β2 5 ng/mL, mean±s.e.m.
  Fibronectin: 8.9 ± 1.5 μg/well
  PAI-1: 297.7 ± 23.1 ng/well
SGTM1233-99; TGF-β2 5 ng/mL vs control
  Fibronectin Fold Increase: 3.1
  PAI-1 Fold Increase: 2.9
SGTM1233-99; TGF-β2 5 ng/mL, mean±s.e.m.
  Fibronectin: 12.2 ± 2.1 μg/well
  PAI-1: 256.5 ± 35.4 ng/well
SGTM2697; TGF-β2 5 ng/mL vs control
  Fibronectin Fold Increase: 2.4
SGTM2697; TGF-β2 5 ng/mL, mean±s.e.m.
  Fibronectin: 19.5 ± 2^ μg/well
